For the test, the target named is human recombinant Hsp60 (human), P10809. In words: cryo-EM structure; purified LAP mixed with Hsp60 at 2:1, incubated 4 h at 4°C; Titan Krios 300 kV with K3 detector, cryoSPARC; LAP-Hsp60 map refined in C1, Hsp60 alone in C7, LAP dimer in C2. The note with it: remark: other sources report otherwise.

B1: human recombinant Hsp60, P10809 27-573 (natural protein)
chain: AKDVKFGADARALMLQGVDLLADAVAVTMGPKGRTVIIEQSWGSPKVTKDGVTVAKSIDLKDKYKNIGAKLVQDVANNTNEEAGDGTTTATVLARSIAKEGFEKISKGANPVEIRRGVMLAVDAVIAELKKQSKPVTTPEEIAQVATISANGDKEIGNIISDAMKKVGRKGVITVKDGKTLNDELEIIEGMKFDRGYISPYFINTSKGQKCEFQDAYVLLSEKKISSIQSIVPALEIANAHRKPLVIIAEDVDGEALSTLVLNRLKVGLQVVAVKAPGFGDNRKNQLKDMAIATGGAVFGEEGLTLNLEDVQPHDLGKVGEVIVTKDDAMLLKGKGDKAQIEKRIQEIIEQLDVTTSEYEKEKLNERLAKLSDGVAVLKVGGTSDVEVNEKKDRVTDALNATRAAVEEGIVLGGGCALLRCIPALDSLTPANEDQKIGIEIIKRTLKIPAMTIAKNAGVEGSLIVEKIMQSSSEVGYDAMAGDFVNMVEKGIIDPTKVVRTALLDAAGVASLLTTAEVVVTEIPKEEKDPGMGAMGGMGGGMGGGMF
The stoichiometry N is the number of molecules, sites or subunits per partner or assembly. As for B1, the stoichiometry N was 7.

The values above are taken from PMC12136220.
